# Patent US10813984B2, “Aspartate-β-hydroxylase induces epitope-specific T cell responses in tumors” (Rhode Island Hospital, priority 2014, dated 2020)
# B1: ASPH: Full-length human ASPH recombinant protein produced in a Baculovirus system, loaded on monocyte-derived DCs (protein, listed as Homo sapiens)
# chain: MAQRKNAKSSGNSSSSGSGSGSTSAGSSSPGARRETKHGGHKNGRKGGLSGTSFFTWFMVIALLGVWTSVAVVWFDLVDYEEVLGKLGIYDADGDGDFDVDDAKVLLGLKERSTSEPAVPPEEAEPHTEPEEQVPVEAEPQNIEDEAKEQIQSLLHEMVHAEHVEGEDLQQEDGPTGEPQQEDDEFLMATDVDDRFETLEPEVSHEETEHSYHVEETVSQDCNQDMEEMMSEQENPDSSEPVVEDERLHHDTDDVTYQVYEEQAVYEPLENEGIEITEVTAPPEDNPVEDSQVIVEEVSIFPVEEQQEVPPETNRKTDDPEQKAKVKKKKPKLLNKFDKTIKAELDAAEKLRKRGKIEEAVNAFKELVRKYPQSPRARYGKAQCEDDLAEKRRSNEVLRGAIETYQEVASLPDVPADLLKLSLKRRSDRQQFLGHMRGSLLTLQRLVQLFPNDTSLKNDLGVGYLLIGDNDNAKKVYEEVLSVTPNDGFAKVHYGFILKAQNKIAESIPYLKEGIESGDPGTDDGRFYFHLGDAMQRVGNKEAYKWYELGHKRGHFASVWQRSLYNVNGLKAQPWWTPKETGYTELVKSLERNWKLIRDEGLAVMDKAKGLFLPEDENLREKGDWSQFTLWQQGRRNENACKGAPKTCTLLEKFPETTGCRRGQIKYSIMHPGTHVWPHTGPTNCRLRMHLGLVIPKEGCKIRCANETRTWEEGKVLIFDDSFEHEVWQDASSFRLIFIVDVWHPELTPQQRRSLPAI
# What was measured:
# [1] = system: tumor-bearing mouse model; settings: cited from earlier work
# Treg cells = settings: low doses; cited from earlier work
# PBMCs (CD4+ T cells) = experiment: Flow cytometric analysis of peptide-cultured PBMCs (IFN-γ+CD4+, CD154); assay type: cell-based, human; settings: PBMCs of HD #1
# Description: FIG. 3A is a histogram, FIGS. 3B and C are bar graphs, and FIG. 3D is a line graph. Characterization of ASPH peptide-specific T cell responses. PBMCs obtained from patient HD #1 were cultured with the ASPH peptides indicated. After 2 weeks incubation, the cells were collected and re-cultured with the corresponding peptides for 20 hours, followed by analyses. p52-reactive PBMCs were stained and the percentage of IFN-γ^+CD4^+ T cells was determined by flow cytometric analysis (FIG. 3A). The percentage of CD154-expressing CD4^+ T cells assessed by flow cytometric analysis was determined as a measure of the response of cells to the ASPH peptide listed in accordance with Table I (FIG. 3B). […] PBMCs cultured 2 weeks with the peptides listed were not treated or pretreated with anti-HLA-A,B,C or anti-HLA-DR for 1 hour; the same corresponding peptide (10 μg/ml) was then added and IFN-γ in the culture supernates collected after 5 days was quantified by ELISA (FIG. 3C). […] PBMCs, cultured 2 weeks with the ASPH peptides listed, were collected and reincubated with increasing concentrations of the same peptide. IFN-γ in the culture supernates collected after 5 days was quantified by standard ELISA. […]
# PBMCs = experiment: IFN-γ ELISpot after 2 weeks PBMC culture with single ASPH peptide; assay type: cell-based, human; settings: 5 healthy blood donors HD #1-5
# Description: (§1) Epitope-specific T cells were induced according to known methods.^21 Briefly, 2.5×10^5 PBMCs/200 μl X-VIVO 15 medium supplemented with 1 mM L-glutamine, 100 U/ml penicillin, 100 μg/ml streptomycin, and 50 U/ml recombinant human IL-2 (R&D Systems) in round-bottom 96-well plates were cultured for 2 weeks with 10 μg/ml individual peptide. When mature DCs were used as antigen-presenting cells, the T cells were isolated from PBMCs by negative selection using the Pan T Cell Isolation Kit II (Miltenyi Biotec). Regulatory T(reg) cells were removed by the addition of anti-CD25 microbeads (Miltenyi Biotec) where indicated. Treg cell-depleted or non-depleted T lymphocytes (2.4×10^6) were co-cultured for 8 days with 4×10^4 mature DCs loaded with relevant antigen in 24-well plates.^11
# Human IFN-γ enzyme-linked immunospot (ELISpot) assays were performed as we described previously using a kit purchased from eBioscience (San Diego, Calif.) to determine T cell immune-reactivity.^21 Cells (5×10^4/well) were added to ELISpot plates (Millipore, Bedford, Mass.) pre-coated with anti-IFN-γ capture antibody and incubated with peptides (10 μg/ml) for 20 hours. […] The plates were developed by adding substrate, 3-amino-9-ethyl carbazole, and the number of spots/well was quantified using a CTL-immunospot S5 UV Analyzer (Cellular Technology Limited, Shaker Heights, Ohio).
# [2] = system: established orthotropic HCC; settings: mice bearing established orthotropic HCC; cited from earlier work
# [3] = system: pan T cells purified from PBMCs (CD4+ T cells, CD8+ CTLs); experiment: T cell activation by co-culture with antigen-loaded monocyte-derived DCs, flow cytometric analysis; assay type: cell-based, human
# Description: DCs were generated using known methods.^11,20 Monocytes were isolated from PBMCs using anti-CD14 microbeads (Miltenyi Biotec, Auburn, Calif.) and cultured for 5 days in X-VIVO 15 medium (Lonza, Walkerville, Md.) supplemented with human GM-CSF (R&D Systems, Minneapolis, Minn.) and IL-4 (R&D Systems). ASPH (1 μg/ml) was added on day 5. On the next day, TNF-α (R&D Systems) was added to stimulate DC maturation and the cells were incubated for another 48 hours. DCs incubated with α-fetoprotein (AFP; Zynaxis Cell Science, Malvern, Pa.) or alone served as the control. Mature, epitope-expressing DCs were collected at the end of the incubation period and used in the experiments described.
# as §1
# Flow cytometric analysis was conducted.^11 Intracellular cytokine staining was performed to evaluate T cell activation. Conjugated mouse monoclonal antibodies specific for the following determinants were used: CD4 (clone OKT4; BioLegend, San Diego, Calif.), CD8a (clone RPA-T8; BioLegend), CD137 (clone 4B4-1; BD Biosciences, San Diego, Calif.), CD154 (clone TRAP1; BD Biosciences), and IFN-γ (clone B27; BD Biosciences). Appropriate isotype controls were included in each analysis.
# Experiments were undertaken to determine the capacity of ASPH to activate CD8^+ CTLs, as well as helper CD4^+ T cells, contained in the PBMC populations derived from HCC patients. The experimental procedure for evaluating ASPH-specific T cell activation was optimized using PBMCs derived from a healthy donor.^11 Pan T cells were co-cultured with autologous, ASPH-pulsed DCs; T cells co-incubated with AFP-pulsed or non-pulsed DCs served as controls. After 8 days culture, the T cells were collected and re-incubated with freshly prepared DCs pre-loaded with the same antigen; antigen-specific T cell activation was evaluated by flow cytometric analysis. […] Moreover, they support the premise that immunization with ASPH activates protein-specific CD4^+ and CD8^+ T cells in HCC patients.
# [4] = HCC patients #1-5, ASPH-pulsed vs AFP-pulsed or non-pulsed DCs
molecule,measurement,setting,value
O=P1(N(CCCl)CCCl)NCCCO1 (centres unmarked) [cyclophosphamide],"Treg cell function, immune response and tumor eradication",[1],suppressed Treg cell function and augmented the immune response and tumor eradication
same,number and inhibitory activity of Treg cells,Treg cells,decrease the number and inhibitory activity of Treg cells
"TSFFTWFMVIALLGVWTSVA (p52) [ASPH AA 52-71, HLA-DRB1-restricted]",peptide-reactive IFN-γ-producing cells that expressed CD4,PBMCs (CD4+ T cells),essentially all
"QKAKVKKKKPKLLNKF (p322) [ASPH AA 322-337, HLA-DRB1-restricted]",healthy blood donors for whom the peptide was immunogenic,PBMCs,5 donors
CNC(=O)c1cc(Oc2ccc(NC(=O)Nc3ccc(Cl)c(C(F)(F)F)c3)cc2)ccn1 [sorafenib],Treg cell function and anti-tumor immunity,[2],reduced Treg cell function and enhanced anti-tumor immunity
B1,CD4+ T cells expressing both IFN-γ and CD154,[3]; HCC patients #1-5,expanded significantly
same,CD4+CD154+ and CD4+IFN-γ+ T cells,[3]; [4],significant increases
same,percentage of CD8+ CTLs expressing CD137 and IFN-γ,[3]; [4],significantly higher
same,percentages of responsive cells vs AFP sample or antigen control,"[3]; HCC patients, FIGS. 1B and 1D, p<0.05",significantly greater
same,ASPH-specific T cell activation after Treg cell depletion,[3]; anti-CD25 microbeads prior to co-culture,enhanced
same,activation of both CD4+ T cells and CTLs,"[3]; healthy donor HD #1, ASPH-pulsed DCs compared to AFP or no antigen",significant increases
